pKd: −log10 of the molar value.
Tests used:
[1] = target: α-synuclein fibrils (human) (UniProt P37840); experiment: inhibition ELISA; fibrils against monomers
[2] = target: α-synuclein fibrils (human) (UniProt P37840); experiment: SPR, BIAcore X100; fibrils immobilised on CM5, mAb injected at 0.01-10 nM

Fold Affinity to Fibrils [1] [fold]	pKd [2]	koff [2] [s⁻¹]	kon [2] [M⁻¹ s⁻¹]	Substance
0.476	–	–	–	Syn-1 (Mouse anti-α-synuclein; BD Bioscience) (antibody)
–	8.59	0.000422	165000	mAb 211 (Santa Cruz Biotechnology) (antibody)
